Reference: publication PMC10440729 (Journal of the American Chemical Society, 2022)

Columns and labels:
[1] = system: STZ-induced C57BL/6J diabetic mouse model; assay: Blood glucose lowering in STZ-induced diabetic mice; type: in vivo; conditions: 5 IU insulin/kg subcutaneous, blood glucose after 4 hours, n = 3
[2] = DOSY NMR diffusion coefficient / oligomerization state; type: physicochemical; conditions: 4 °C, suggests a mixture of dimers and hexamers
[3] = reported value, cited from earlier work

With “2A-S-Ins: discrete 2A IEG polytriazole (all S) conjugated to N-terminus of insulin chain B by SPAAC” the “duration of blood glucose response” value [1] was “longer-lasting effects than Lantus”.
For insulin, the “diffusion coefficient (D)” value [2] is given as ~ 1 × 10^−6 cm^2/s, the “reported D of dimers” value ([3]; insulin dimers) is given as 1.22 × 10^−6 cm^2/s and the “reported D of hexamers” value ([3]; insulin hexamers) is given as 0.87 × 10^−6 cm^2/s.
